From US20100260668A1 (published 2010) come the findings set out here.

First the molecules themselves.
B1: DVD043 (bispecific antibody, human IgG1, kappa)
heavy: not shown
light: DIQMTQSPSSLSASVGDRVTITCSASQDISNYLNWYQQKPGKAPKVLIYFTSSLHSGVPSRFSGSGSGTDFTLTISSLQPEDFATYYCQQYSTVPWTFGQGTKVEIKRTVAAPDIQMTQSPSSLSASVGDRVTITCRASQDVSTAVAWYQQKPGKAPKLLIYSASFLYSGVPSRFSGSGSGTDFTLTISSLQPEDFATTYYCQQSYTGTVTFGQGTKVEIKRTVAAPSVFIFPPSDEQLKSGTASVVCLLNNFYPREAKVQWKVDNALQSGNSQESVTEQDSKDSTYSLSSTLTLSKADYEKHKVYACEVTHQGLSSPVTKSFNRGEC
notes: DVD-Ig; N-term; AB014 (VEGF), C-term; AB015 (DLL4); HC linker short, LC linker short; also called DVD043H; DVD043L
B2: DVD520 (bispecific antibody, human IgG1, kappa, lambda)
heavy: not shown
light: DIQMTQSPSSLSASVGDRVTITCRASQDVSTAVAWYQQKPGKAPKLLIYSASFLYSGVPSRFSGSGSGTDFTLTISSLQPEDFATYYCQQSYTTPPTFGQGTKVEIKRTVAAPSVFIFPPQAVVTQESALTTSPGETVTLTCRSSTGAVTTSNYANWVQEKPDHLFTGLIGGTNNRAPGVPARFSGSLIGDKAALTITGAQTEDEAIYFCALWYSNHWVFGGGTKLTVLGQPKAAPSVTLFPPSSEELQANKATLVCLISDFYPGAVTVAWKADSSPVKAGVETTTPSKQSNNKYAASSYLSLTPEQWKSHRSYSCQVTHEGSTVEKTVAPTECS
notes: DVD-Ig; N-term; VD AB070 (VEGF), C-term; VD AB073 (DLL4); HC linker long, LC linker long; also called DVD520H; DVD520L
B3: DVD532 (bispecific antibody, human IgG1, kappa, lambda)
heavy: not shown
light: B2 light
notes: DVD-Ig; N-term; VD AB070 (VEGF), C-term; VD AB073 (DLL4); HC linker short, LC linker long; also called DVD532H; DVD532L
B4: DVD490 (bispecific antibody, human IgG1, kappa)
heavy: not shown
light: DIQMTQSPSSLSASVGDRVTITCRASQDVSTAVAWYQQKPGKAPKLLIYSASFLYSGVPSRFSGSGSGTDFTLTISSLQPEDFATYYCQQSYTTPPTFGQGTKVEIKRTVAAPDIQMTQSSSYLSVSLGGRVTITCKASDHINNWLAWYQQKPGNAPRLLISGATSLETGVPSRFSGSGSGKDYTLSITSLQTEDVATYYCQQYWSIPLTFGAGTKLELKRTVAAPSVFIFPPSDEQLKSGTASVVCLLNNFYPREAKVQWKVDNALQSGNSQESVTEQDSKDSTYSLSSTLTLSKADYEKHKVYACEVTHQGLSSPVTKSFNRGEC
notes: DVD-Ig; N-term; VD AB070 (VEGF), C-term; VD AB072 (DLL4); HC linker short, LC linker short; also called DVD490H; DVD490L
B5: DVD502 (bispecific antibody, human IgG1, kappa)
heavy: not shown
light: B4 light
notes: DVD-Ig; N-term; VD AB070 (VEGF), C-term; VD AB072 (DLL4); HC linker long, LC linker short; also called DVD502H; DVD502L
B6: DVD484 (bispecific antibody, human IgG1, kappa)
heavy: not shown
light: DIQMTQSPSSLSASVGDRVTITCRASQDVSTAVAWYQQKPGKAPKLLIYSASFLYSGVPSRFSGSGSGTDFTLTISSLQPEDFATYYCQQSYTTPPTFGQGTKVEIKRTVAAPSVFIFPPDIQMTQSPSSLSASVGDRVTITCRASQDVSTAVAWYQQKPGKAPKLLIYSASFLYSGVPSRFSGSGSGTDFTLTISSLQPEDFATTYYCQQSYTGTVTFGQGTKVEIKRTVAAPSVFIFPPSDEQLKSGTASVVCLLNNFYPREAKVQWKVDNALQSGNSQESVTEQDSKDSTYSLSSTLTLSKADYEKHKVYACEVTHQGLSSPVTKSFNRGEC
notes: DVD-Ig; N-term; VD AB070 (VEGF), C-term; VD AB015 (DLL4); HC linker short, LC linker long; also called DVD484H; DVD484L
B7: DVD514 (bispecific antibody, human IgG1, lambda)
heavy: not shown
light: DIQMTQSPSSLSASVGDRVTITCRASQDVSTAVAWYQQKPGKAPKLLIYSASFLYSGVPSRFSGSGSGTDFTLTISSLQPEDFATYYCQQSYTTPPTFGQGTKVEIKRTVAAPQAVVTQESALTTSPGETVTLTCRSSTGAVTTSNYANWVQEKPDHLFTGLIGGTNNRAPGVPARFSGSLIGDKAALTITGAQTEDEAIYFCALWYSNHWVFGGGTKLTVLGQPKAAPSVTLFPPSSEELQANKATLVCLISDFYPGAVTVAWKADSSPVKAGVETTTPSKQSNNKYAASSYLSLTPEQWKSHRSYSCQVTHEGSTVEKTVAPTECS
notes: DVD-Ig; N-term; VD AB070 (VEGF), C-term; VD AB073 (DLL4); HC linker short, LC linker short; also called DVD514H; DVD514L
B8: DVD526 (bispecific antibody, human IgG1, lambda)
heavy: not shown
light: B7 light
notes: DVD-Ig; N-term; VD AB070 (VEGF), C-term; VD AB073 (DLL4); HC linker long, LC linker short; also called DVD526H; DVD526L
B9: DVD496 (bispecific antibody, human IgG1, kappa)
heavy: not shown
light: DIQMTQSPSSLSASVGDRVTITCRASQDVSTAVAWYQQKPGKAPKLLIYSASFLYSGVPSRFSGSGSGTDFTLTISSLQPEDFATYYCQQSYTTPPTFGQGTKVEIKRTVAAPSVFIFPPDIQMTQSSSYLSVSLGGRVTITCKASDHINNWLAWYQQKPGNAPRLLISGATSLETGVPSRFSGSGSGKDYTLSITSLQTEDVATYYCQQYWSIPLTFGAGTKLELKRTVAAPSVFIFPPSDEQLKSGTASVVCLLNNFYPREAKVQWKVDNALQSGNSQESVTEQDSKDSTYSLSSTLTLSKADYEKHKVYACEVTHQGLSSPVTKSFNRGEC
notes: DVD-Ig; N-term; VD AB070 (VEGF), C-term; VD AB072 (DLL4); HC linker long, LC linker long; also called DVD496H; DVD496L
B10: DVD508 (bispecific antibody, human IgG1, kappa)
heavy: not shown
light: B9 light
notes: DVD-Ig; N-term; VD AB070 (VEGF), C-term; VD AB072 (DLL4); HC linker short, LC linker long; also called DVD508H; DVD508L
B11: DVD450 (bispecific antibody, human IgG1, kappa)
heavy: not shown
light: DIQMTQSPSSLSASVGDRVTITCRASQDVSTAVAWYQQKPGKAPKLLIYSASFLYSGVPSRFSGSGSGTDFTLTISSLQPEDFATYYCQQSYTTPPTFGQGTKVEIKRTVAAPSVFIFPPDIVMTQSPDSLAVSLGERATISCRASESVDNYGISFMKWFQQKPGQPPKLLIYAASNQGSGVPDRFSGSGSGTDFTLTISSLQAEDVAVYYCQQSKEVPWTFGGGTKVEIKRTVAAPSVFIFPPSDEQLKSGTASVVCLLNNFYPREAKVQWKVDNALQSGNSQESVTEQDSKDSTYSLSSTLTLSKADYEKHKVYACEVTHQGLSSPVTKSFNRGEC
notes: DVD-Ig; N-term; VD AB070 (VEGF), C-term; VD AB069 (DLL4); HC linker long, LC linker long; also called DVD450H; DVD450L
B12: DVD462 (bispecific antibody, human IgG1, kappa)
heavy: not shown
light: B11 light
notes: DVD-Ig; N-term; VD AB070 (VEGF), C-term; VD AB069 (DLL4); HC linker short, LC linker long; also called DVD462H; DVD462L
B13: DVD444 (bispecific antibody, human IgG1, kappa)
heavy: not shown
light: DIQMTQSPSSLSASVGDRVTITCRASQDVSTAVAWYQQKPGKAPKLLIYSASFLYSGVPSRFSGSGSGTDFTLTISSLQPEDFATYYCQQSYTTPPTFGQGTKVEIKRTVAAPDIVMTQSPDSLAVSLGERATISCRASESVDNYGISFMKWFQQKPGQPPKLLIYAASNQGSGVPDRFSGSGSGTDFTLTISSLQAEDVAVYYCQQSKEVPWTFGGGTKVEIKRTVAAPSVFIFPPSDEQLKSGTASVVCLLNNFYPREAKVQWKVDNALQSGNSQESVTEQDSKDSTYSLSSTLTLSKADYEKHKVYACEVTHQGLSSPVTKSFNRGEC
notes: DVD-Ig; N-term; VD AB070 (VEGF), C-term; VD AB069 (DLL4); HC linker short, LC linker short; also called DVD444H; DVD444L
B14: DVD456 (bispecific antibody, human IgG1, kappa)
heavy: not shown
light: B13 light
notes: DVD-Ig; N-term; VD AB070 (VEGF), C-term; VD AB069 (DLL4); HC linker long, LC linker short; also called DVD456H; DVD456L

The first test deals with T1, VEGF (UniProt P15692-4 27-191).
T1 construct: Bought reagent; also called vascular endothelial growth factor
Description: BIACORE SPR.
T1 sequence (P15692 other isoform, or with tags, fused parts or gaps limits assumed): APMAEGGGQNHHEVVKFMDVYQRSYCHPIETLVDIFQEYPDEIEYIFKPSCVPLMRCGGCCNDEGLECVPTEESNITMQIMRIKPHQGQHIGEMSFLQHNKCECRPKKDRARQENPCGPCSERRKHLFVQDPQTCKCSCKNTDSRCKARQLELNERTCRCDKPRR
For orientation: Kd means the equilibrium constant for the complex coming apart. Higher therefore signals a looser complex. By koff is commonly meant a measure of how fast the partners let go of each other. Low readings indicate a long-lived complex, high ones a short-lived complex. One may read the kon as the rate constant with which the complex forms. The molecule B1 registered a Kd of 0.0746 nM, an off-rate (koff) of 0.000125 s⁻¹ and a kon of 1.68e+06 M⁻¹ s⁻¹.

The target of a further test is T2, VEGF (UniProt P15692-4 27-191).
T2 construct: Bought reagent; also called vascular endothelial growth factor
Description: SPR (Biacore), DVD-Ig captured, VEGF in solution.
T2 sequence (P15692 other isoform, or with tags, fused parts or gaps limits assumed): as above
Take B2: binding was characterised by a dissociation constant (Kd) of 0.817 nM, the koff was determined as 0.000961 s⁻¹ and the kon was determined as 1.18e+06 M⁻¹ s⁻¹.

For B3, the affinity, expressed as Kd, was 0.276 nM; the koff was determined as 0.0123 s⁻¹; the kon stood at 4.47e+07 M⁻¹ s⁻¹.

Molecule B4 returned a Kd of 0.189 nM, a koff of 0.000169 s⁻¹ and a kon of 894000 M⁻¹ s⁻¹.

In the case of B5, the Kd came out at 0.265 nM, the koff is 0.000231 s⁻¹ and the kon turned out to be 871000 M⁻¹ s⁻¹.

On to B6, for which the Kd amounted to 0.255 nM, the koff came to 0.0041 s⁻¹ and the kon stood at 1.61e+07 M⁻¹ s⁻¹.

Turning to B7, binding was characterised by a dissociation constant (Kd) of 1.01 nM, the dissociation rate constant (koff) is 0.000549 s⁻¹ and the on-rate constant (kon) came to 541000 M⁻¹ s⁻¹.

B8 displayed a Kd of 0.675 nM, a koff of 0.000801 s⁻¹ and a kon of 1.19e+06 M⁻¹ s⁻¹.

With B9, the Kd was found to be 0.311 nM, the koff is 0.00658 s⁻¹ and the kon was 2.12e+07 M⁻¹ s⁻¹.

Molecule B10 registered a dissociation constant Kd of 0.162 nM, a koff of 0.000213 s⁻¹ and a kon of 1.31e+06 M⁻¹ s⁻¹.

In turn, B11 had a Kd of 0.255 nM, a koff of 0.00431 s⁻¹ and a kon of 1.69e+07 M⁻¹ s⁻¹.

As to B12, binding was put at a Kd of 0.864 nM, the koff turned out to be 0.000858 s⁻¹ and the kon was 993000 M⁻¹ s⁻¹.

B13 displayed a Kd of 0.162 nM, a koff of 0.0038 s⁻¹ and a kon of 2.35e+07 M⁻¹ s⁻¹.

As to B14, the Kd was 0.281 nM, the koff stood at 0.00448 s⁻¹ and the association rate constant (kon) is 1.6e+07 M⁻¹ s⁻¹.
